One assay has as its target T1, mutant Bet v 1-MMH (Betula verrucosa (European white birch, …)).
T1 construct: also called CHO produced recombinant Bet v 1 containing a S85A mutation with a C-terminal myc-myc hexahistidine tag
T1 chain: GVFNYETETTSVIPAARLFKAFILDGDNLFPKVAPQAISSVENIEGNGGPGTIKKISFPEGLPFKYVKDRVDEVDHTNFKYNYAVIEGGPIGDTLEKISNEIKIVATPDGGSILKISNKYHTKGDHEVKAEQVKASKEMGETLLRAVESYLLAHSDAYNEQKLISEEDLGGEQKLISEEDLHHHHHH
The assay is described as follows: SPR Biacore, 25C and 37C. (In general: Surface plasmon resonance follows binding to a sensor surface in real time, without labels.)

Assay [1] concerns the target T2, Alder (Aln g 1, MyBiosource, Cat #MBS1041484) (Alder, UniProt P38948 2-160, limits assumed).
T2 construct: Bought reagent
T2 sequence (looked up): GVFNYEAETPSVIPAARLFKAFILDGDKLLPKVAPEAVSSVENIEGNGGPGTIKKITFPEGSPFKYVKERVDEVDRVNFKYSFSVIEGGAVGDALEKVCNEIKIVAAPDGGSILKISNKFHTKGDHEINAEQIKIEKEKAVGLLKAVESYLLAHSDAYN
The assay is described as follows: SPR Biacore, 25C.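 Further: binding of related allergens to purified monoclonal anti-Bet v 1 antibodies by surface plasmon resonance in HEPES-buffered saline pH 7.4, kinetics fitted to a 1:1 model with mass transport.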

Assay [2] has as its target T3, Apple (Mal d 1, MyBiosource, Cat #MBS1224919) (Apple, UniProt P43211 2-159, limits assumed).
T3 construct: Bought reagent
T3 sequence (looked up): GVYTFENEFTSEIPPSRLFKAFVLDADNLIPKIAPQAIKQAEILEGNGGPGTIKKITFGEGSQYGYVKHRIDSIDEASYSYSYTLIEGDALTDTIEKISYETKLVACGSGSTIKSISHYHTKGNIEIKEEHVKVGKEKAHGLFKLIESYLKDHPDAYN
Put plainly: SPR Biacore, 25C.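 Further: binding of related allergens to purified monoclonal anti-Bet v 1 antibodies by surface plasmon resonance in HEPES-buffered saline pH 7.4, kinetics fitted to a 1:1 model with mass transport.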

The target of assay [3] is T4, Celery (Api g 1, MyBiosource, Cat #MBS1171376) (Celery, UniProt P49372 1-154, limits assumed).
T4 construct: Bought reagent
T4 sequence (looked up): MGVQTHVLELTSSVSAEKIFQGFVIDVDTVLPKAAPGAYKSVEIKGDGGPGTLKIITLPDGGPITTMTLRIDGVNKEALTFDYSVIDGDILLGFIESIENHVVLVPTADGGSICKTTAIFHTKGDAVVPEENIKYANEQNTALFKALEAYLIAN
The assay is described as follows: SPR Biacore, 25C.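 Further: binding of related allergens to purified monoclonal anti-Bet v 1 antibodies by surface plasmon resonance in HEPES-buffered saline pH 7.4, kinetics fitted to a 1:1 model with mass transport.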

Assay [4] addresses T5, European Hornbeam (Car b 1 isoform 1A & 1B, MyBiosource, Cat #MBS1200018) (European Hornbeam, UniProt P38949 2-160).
T5 construct: Bought reagent
T5 sequence (looked up): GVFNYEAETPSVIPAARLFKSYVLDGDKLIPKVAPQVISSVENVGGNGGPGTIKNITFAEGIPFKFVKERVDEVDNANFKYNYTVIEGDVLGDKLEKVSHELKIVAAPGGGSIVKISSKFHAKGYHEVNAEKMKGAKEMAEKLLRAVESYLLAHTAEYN
The assay is described as follows: SPR Biacore, 25C.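 Further: binding of related allergens to purified monoclonal anti-Bet v 1 antibodies by surface plasmon resonance in HEPES-buffered saline pH 7.4, kinetics fitted to a 1:1 model with mass transport.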

Assay [5] deals with T6, European Hornbeam (Car b 1 isoform 2, MyBiosource, Cat #MBS1043940) (European Hornbeam, UniProt P38950 2-160, limits assumed).
T6 construct: Bought reagent
T6 sequence (looked up): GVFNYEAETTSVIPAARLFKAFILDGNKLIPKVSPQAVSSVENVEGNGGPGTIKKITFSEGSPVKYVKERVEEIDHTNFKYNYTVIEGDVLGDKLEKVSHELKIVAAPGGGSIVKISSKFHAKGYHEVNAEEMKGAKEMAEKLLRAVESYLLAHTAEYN
The assay is described as follows: SPR Biacore, 25C.

Assay [6] concerns the target T7, natural Bet v 1 (Indoor, Cat #NA-BV1-1) (Betula verrucosa (European white birch, …, UniProt P15494 2-160)).
T7 construct: Bought natural protein purified from birch pollen; also called nBet v 1
T7 sequence: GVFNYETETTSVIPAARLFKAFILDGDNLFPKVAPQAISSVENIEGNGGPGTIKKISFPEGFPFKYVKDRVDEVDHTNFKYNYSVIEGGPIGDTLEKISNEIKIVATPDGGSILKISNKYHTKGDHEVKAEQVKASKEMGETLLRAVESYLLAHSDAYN
The assay is described as follows: SPR Biacore, mAb captured on anti-hFc, 37C.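 Further: purified anti-Bet v 1 monoclonal antibodies, HBS-ET running buffer pH 7.4, rate constants from 1:1 model fit with mass transport limitation, KD and t½ calculated from kinetic constants.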

Assay [7] concerns the target T7, natural Bet v 1 (Indoor, Cat #NA-BV1-1). Put plainly: SPR Biacore, mAb captured on anti-hFc, 25C.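 Further: rate constants from sensorgrams fitted to a 1:1 model with mass transport limitation, KD and t½ derived from kinetic constants, run in HBS-ET buffer at pH 7.4.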
Assay [8] addresses T8, natural Bet v 1 (Betula verrucosa (Betula pendula), UniProt P15494 2-160).
T8 construct: bought natural protein (Indoor Biotechnologies #NA-BV1-1); also called nBet v 1; Biotinylated Bet v 1
T8 chain: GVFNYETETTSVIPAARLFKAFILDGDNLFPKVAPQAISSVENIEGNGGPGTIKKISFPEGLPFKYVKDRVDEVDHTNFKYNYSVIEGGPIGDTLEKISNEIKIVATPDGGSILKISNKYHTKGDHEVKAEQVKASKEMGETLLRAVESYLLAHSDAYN
The assay is described as follows: blocking ELISA, biotin nBet v 1 to captured IgE, donor 25609-MS. For orientation: ELISA stands for enzyme-linked immunosorbent assay.

Assay [9] has as its target T8, natural Bet v 1. The assay is described as follows: dose-response blocking ELISA, biotin nBet v 1 to captured IgE, donor 25340-RR.
The target of assay [10] is T8, natural Bet v 1. Put plainly: blocking ELISA, biotin nBet v 1 to captured IgE, donor 29718-MW.
For assay [11], the target named is T8, natural Bet v 1. The assay is described as follows: dose-response blocking ELISA, biotin nBet v 1 to captured IgE, donor 23939-MH.
Assay [12] has as its target T8, natural Bet v 1. Put plainly: blocking ELISA, biotin nBet v 1 to captured IgE, donor 25414-CW.
Assay [13] concerns the target T8, natural Bet v 1. Put plainly: blocking ELISA, biotin nBet v 1 to captured IgE, donor 23658-MD.
The target of assay [14] is T8, natural Bet v 1. The assay is described as follows: blocking ELISA, biotin nBet v 1 to captured IgE, donor 23035-BL.
Assay [15] has as its target T8, natural Bet v 1. The assay is described as follows: blocking ELISA, biotin nBet v 1 to captured IgE, donor 22627-MN.
Assay [16] addresses T8, natural Bet v 1. The assay is described as follows: blocking ELISA, biotin nBet v 1 to captured IgE, donor 23939-MH.
Assay [17] deals with T8, natural Bet v 1. The assay is described as follows: blocking ELISA, biotin nBet v 1 to captured IgE, donor 25299-RJ.
Assay [18] deals with T8, natural Bet v 1. The assay is described as follows: blocking ELISA, biotin nBet v 1 to captured IgE, donor 26532-CC.
Assay [19] addresses T8, natural Bet v 1. The assay is described as follows: dose-response blocking ELISA, biotin nBet v 1 to captured IgE, donor 25609-MS.
The target of assay [20] is T8, natural Bet v 1. Put plainly: blocking ELISA, biotin nBet v 1 to captured IgE, donor 25340-RR.

B1: H4H16967P (antibody, human IgG4, V domains shown)
VH: QVQLVESGGGVVQPGRSLRLSCAASGFTFSSYGMHWFRQAPGKGLEWVGVIWSDGSDKKYADSVKGRFTISRDNSKNTLYLLMNSLRDDDTAVYHCAREGGFLYSSSSHFDYWGQGTLVTVSS
VL: AIQMTQSPSSLSASVGDRVTITCRTSQGIRNDLGWYQQKPGKAPKLLIFAASSLQSGVPSRFSGSGSGTDFTLTISSLQPEDFAIYYCLQDYKYPFTFGGGTKVEIK
For the molecule B1, the binding result (in the assay with mutant Bet v 1-MMH; in assay [1]; in assay [2]; in assay [3]; in [4]; in assay [5]) was “no binding (tested: 100 nM)” each time. Also, the “100 nM natural Bet v 1 Bound (RU)” value stood at 45 RU in assay [6] and 27 RU in [7]. The Kd (in general, a measure of binding affinity in units of concentration) was 14.3 nM in assay [6] and 3.98 nM in assay [7]. Moreover, the dissociation rate constant (koff) (usually the first-order rate constant of dissociation) in [6] turned out to be 0.000719 s⁻¹; in assay [7], 0.000149 s⁻¹. Also, the results for the kon in assay [6] and in [7] were 50400 M⁻¹ s⁻¹ and 37600 M⁻¹ s⁻¹, respectively. Besides, the t½ (commonly the time in which the quantity being followed falls by half) came to 16 min in assay [6] and 77 min in assay [7].

B2: H4H16987P (antibody, human IgG4 S228P, kappa, V domains shown)
VH: EVQLVESGGGLVQPGGSLRLSCAASGFTVSSNSMSWVRQAPGEGLEWVSVIFSGGITYYSDSVKGRFTISRHNSKNTLYLQMNSLRTEDTAVYYCARHSNWNFDAFDIWGQGTMVTVSS
VL: DIQMTQSPSSLSASVGDRVTITCRASQSFDTYLNWYQQKPGKAPNLLIYATSSLQSGVPSRFSGSGSGTDFTLTISSLQPEDFGTYYCQQSYSIPYTFGQGTKLEIKR
notes: fully human, human IgG4 Fc (H4H prefix); also called MAB4
With B2, the “Percent Blocking (at 1 µg/mL each antibody)” value (“Percent Blocking” for short) in the assay with natural Bet v 1 [8] was 16%; with natural Bet v 1 [9], 11.1%; with natural Bet v 1 [10], 13%; with natural Bet v 1 [11] it was 19.6%; with natural Bet v 1 [12] it was -4%; with natural Bet v 1 [13] it was 27%. Further, the “Percent Blocking” value with natural Bet v 1 [14] is -46%; with natural Bet v 1 [15] it was 12%; with natural Bet v 1 [16] it was 16%; with natural Bet v 1 [17] it was 9%; in the assay with natural Bet v 1 [18], 4%; in the assay with natural Bet v 1 [19], 21.6%. Further, the “Percent Blocking” value in the assay with natural Bet v 1 [20] was determined as 15%.
